Assays:
[1] = biological target: BG505_SOSIP_D664_olio6_mC (HIV (strain BG505)); assay: SPR (ligand and analyte not given)
BG505 MD39C = assay: SPR (ligand and analyte not given)
BG505 MD37 = assay: SPR (ligand and analyte not given)
[2] = biological target: BG505_SOSIP_D664_MD39_mC (BG505 SOSIP-MD39 or MD39) (HIV (strain BG505)); assay: SPR (ligand and analyte not given)
[3] = biological target: BG505_SOSIP_D664_olio6_mC (HIV (strain BG505)); assay: SPR, trimer ligand, Fab analyte [panel A]
[4] = biological target: BG505_SOSIP_D664_MD39_mC (BG505 SOSIP-MD39 or MD39) (HIV (strain BG505)); assay: SPR, trimer ligand, Fab analyte [panel A]
[5] = biological target: CD4 on human CD4+ T cells (human) (UniProt P01730); assay: flow cytometry, human CD4+ T cells stained with trimer labelled with two fluorescent probes
[6] = biological target: BG505 SOSIP T332N gp140 (soluble trimer) (HIV (strain BG505)); assay: SPR, IgG ligand, trimer analyte [panel A]
[7] = biological target: BG505_SOSIP_D664_MD39_mC (BG505 SOSIP-MD39 or MD39) (HIV (strain BG505)); assay: SPR, IgG ligand, trimer analyte [panel A]
BG505 MD53 = assay: SPR (ligand and analyte not given)
[8] = biological target: BG505 SOSIP T332N gp140 (soluble trimer) (HIV (strain BG505)); assay: SPR (ligand and analyte not given)
[9] = biological target: BG505 SOSIP T332N gp140 (soluble trimer) (HIV (strain BG505)); assay: SPR, monovalent interaction
[10] = biological target: BG505_SOSIP_D664_MD39_mC (BG505 SOSIP-MD39 or MD39) (HIV (strain BG505)); assay: SPR, monovalent interaction
[11] = biological target: BG505_SOSIP.D664_JS_10mut_mC (SOSIP-10MUT) (HIV (strain BG505)); assay: ELISA, His-tagged trimer captured, mAb titrated [panel B]
[12] = biological target: BG505 SOSIP T332N gp140 (soluble trimer) (HIV (strain BG505)); assay: as above
[13] = biological target: BG505_SOSIP_D664_MD39_mC (BG505 SOSIP-MD39 or MD39) (HIV (strain BG505)); assay: as above
[14] = biological target: BG505_SOSIP.D664_JS_10mut_mC (SOSIP-10MUT) (HIV (strain BG505)); assay: SPR, IgG ligand, trimer analyte [panel A]
[15] = biological target: BG505 SOSIP T332N gp140 (soluble trimer) (HIV (strain BG505)); assay: SPR, IgG ligand, trimer analyte [panel A]; remark: listed apart in the source
[16] = biological target: BG505_SOSIP.D664_JS_3mut_mC (SOSIP-3MUT) (HIV (strain BG505)); assay: SPR, IgG ligand, trimer analyte [panel A]
MD39-10MUT [17] = assay: SPR, IgG ligand, trimer analyte [panel A]
[18] = biological target: BG505_SOSIP.D664_JS_5mut_mC (SOSIP-5MUT) (HIV (strain BG505)); assay: SPR, IgG ligand, trimer analyte [panel A]
[19] = biological target: BG505-gp120 9MUTB (7MUT+N135R/Q328M) (HIV (strain BG505)); assay: SPR, monomeric gp120
[20] = biological target: BG505_SOSIP.D664_JS_10mut_mC (SOSIP-10MUT) (HIV (strain BG505)); assay: SPR, trimer ligand, Fab analyte [panel A]
[21] = biological target: BG505 SOSIP T332N gp140 (soluble trimer) (HIV (strain BG505)); assay: SPR, trimer ligand, Fab analyte [panel A]
[22] = biological target: BG505_SOSIP.D664_JS_3mut_mC (SOSIP-3MUT) (HIV (strain BG505)); assay: SPR, trimer ligand, Fab analyte [panel A]
MD39-10MUT [23] = assay: SPR, trimer ligand, Fab analyte [panel A]
[24] = biological target: BG505_SOSIP.D664_JS_5mut_mC (SOSIP-5MUT) (HIV (strain BG505)); assay: SPR, trimer ligand, Fab analyte [panel A]
[25] = biological target: BG505_SOSIP_D664_MD39_mC (BG505 SOSIP-MD39 or MD39) (HIV (strain BG505)); assay: SPR, trimer ligand, Fab analyte [panel A]; remark: listed apart in the source
[26] = biological target: BG505_SOSIP_MD39_2JD6 (HIV (strain BG505) fused to Pyrococcus furiosus ferritin); assay: SPR, captured particle, Fab analyte
[27] = biological target: BG505 SOSIP MD39 E2p (HIV (strain BG505) fused to Bacillus stearothermophilus E2p); assay: SPR, captured particle, Fab analyte
[28] = biological target: BG505_SOSIP_D664_olio6_mC (HIV (strain BG505)); assay: SPR, IgG ligand, trimer analyte [panel A]
[29] = biological target: BG505_MD39_CP1.2_GRSF7_qLoops1 (HIV (strain BG505)); assay: SPR, Fab analyte
[30] = biological target: BG505_SOSIP.D664_JS_10mut_mC (SOSIP-10MUT) (HIV (strain BG505)); assay: SPR, trimer ligand, Fab analyte (1-to-1 fit relatively poor) [panel A]
[31] = biological target: BG505_SOSIP.D664_JS_3mut_mC (SOSIP-3MUT) (HIV (strain BG505)); assay: as above
[32] = biological target: BG505_SOSIP_D664_MD39_mC (BG505 SOSIP-MD39 or MD39) (HIV (strain BG505)); assay: as above

## 3BNC60 (antibody)
[1]
  Kd: 0.119 µM
BG505 MD39C
  Kd: 0.144 µM
BG505 MD37
  Kd: 0.189 µM
[2]
  Kd: 0.121 µM

## 3BNC60 Fab
[3]
  Kd: 0.119 µM
[4]
  Kd: 0.189 µM

## BG505 SOSIP T332N gp140 (soluble trimer) (other; other documents disagree on this pair)
[5]
  percentage of cells in the double-positive population: 99.1%

## PGDM1400 (antibody)
[6]
  Kd: 0.006 µM
[7]
  Kd: 0.012 µM
BG505 MD53
  Kd: 0.011 µM
[8]
  Kd: 0.006 µM
[2]
  Kd: 0.012 µM
[9]
  Kd: 0.005 µM
[10]
  Kd: 0.036 µM
[11]
  EC50 (read off the curve): 0.04 mg/L
[12]
  EC50 (read off the curve): 0.04 mg/L
[13]
  EC50 (read off the curve): 0.04 mg/L
[14]
  Kd: 0.001 µM
[15]
  Kd: 0.002 µM
[16]
  Kd: 0.001 µM
MD39-10MUT [17]
  Kd: 0.006 µM
[18]
  Kd: 0.001 µM

## PGT121 (antibody)
[19]
  Kd: 0.0015 µM

## PGT128 (antibody)
[1]
  Kd: 0.011 µM
BG505 MD39C
  Kd: 0.014 µM
BG505 MD37
  Kd: 0.019 µM
[9]
  Kd: 0.008 µM
[10]
  Kd: 0.012 µM

## PGT128 Fab
[20]
  Kd: 0.003 µM
[21]
  Kd: 0.008 µM
[22]
  Kd: 0.003 µM
MD39-10MUT [23]
  Kd: 0.003 µM
[24]
  Kd: 0.005 µM
[25]
  Kd: 0.012 µM
[4]
  Kd: 0.011 µM
[26]
  Kd: 0.005 µM
[27]
  Kd: 0.006 µM

## PGT145 (antibody)
[28]
  Kd: 0.031 µM
[7]
  Kd: 0.02 µM
[1]
  Kd: 0.031 µM
[2]
  Kd: 0.02 µM
[10]
  Kd: 0.06 µM
[14]
  Kd: 0.003 µM
[16]
  Kd: 0.003 µM
[18]
  Kd: 0.003 µM

## PGT145-Fab
[29]
  Kd: 0.026 µM
[26]
  Kd: 0.049 µM
[27]
  Kd: 0.041 µM

## PGT151 (antibody)
[2]
  Kd: 0.011 µM
[10]
  Kd: 0.011 µM
[11]
  EC50 (read off the curve): 0.03 mg/L
[13]
  EC50 (read off the curve): 0.03 mg/L

## PGT151 Fab
[4]
  Kd: 0.011 µM
[30]
  Kd: 0.02 µM
[31]
  Kd: 0.009 µM
[32]
  Kd: 0.011 µM
[26]
  Kd: 0.049 µM
[27]
  Kd: 0.025 µM

## VRC01 (antibody)
[2]
  Kd: 0.124 µM
[10]
  Kd: 0.124 µM

## VRC01-Fab
[20]
  Kd: 0.115 µM
[22]
  Kd: 0.101 µM
MD39-10MUT [23]
  Kd: 0.142 µM
[24]
  Kd: 0.195 µM
[4]
  Kd: 0.124 µM
[26]
  Kd: < 0.001 µM
[27]
  Kd: < 0.001 µM

From patent US20260273042A1
